Consider 1 molecule from article PMC5033702.

The target in one data set is DDX5 WT (MBP-DDX5-GST) (UniProt P17844 1-614). The experiment in a line: fluorescence anisotropy. On the technique in general: Fluorescence polarisation rises when a labelled molecule tumbles more slowly, as on binding a larger partner.
The target of data set [1] is DDX5-K144N (MBP-DDX5-GST) (UniProt P17844 1-614, K144N). Description: fluorescence anisotropy.
Sequence of DDX5-K144N (MBP-DDX5-GST) (P17844 whole entry K144N): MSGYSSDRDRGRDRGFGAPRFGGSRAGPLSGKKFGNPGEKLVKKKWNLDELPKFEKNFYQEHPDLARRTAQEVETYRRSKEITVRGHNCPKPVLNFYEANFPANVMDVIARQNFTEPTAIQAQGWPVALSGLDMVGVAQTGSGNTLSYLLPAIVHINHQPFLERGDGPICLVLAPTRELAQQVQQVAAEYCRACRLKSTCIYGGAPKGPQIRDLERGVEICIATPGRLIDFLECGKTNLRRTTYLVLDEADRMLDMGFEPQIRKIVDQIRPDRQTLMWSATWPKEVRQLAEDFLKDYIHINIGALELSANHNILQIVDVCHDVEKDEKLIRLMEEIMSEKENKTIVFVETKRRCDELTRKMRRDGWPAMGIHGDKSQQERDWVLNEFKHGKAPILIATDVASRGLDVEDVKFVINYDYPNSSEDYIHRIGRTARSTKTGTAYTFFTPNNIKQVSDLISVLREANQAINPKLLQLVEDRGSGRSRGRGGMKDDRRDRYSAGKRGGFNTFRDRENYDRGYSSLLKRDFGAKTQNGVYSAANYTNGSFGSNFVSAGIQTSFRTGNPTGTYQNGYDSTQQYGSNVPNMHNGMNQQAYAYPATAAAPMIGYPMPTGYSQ

Sequence of DDX5 WT (MBP-DDX5-GST) (P17844 whole entry): as the sequence (P17844 whole entry K144N) above, with N144K counted along it

As for AGCACCGUAAAGACGC (ssRNA) [6-FAM ssRNA 16-mer], the binding result with DDX5 WT (MBP-DDX5-GST) is “binds”. Further, the binding signal in data set [1] was ~4 fold reduced affinity vs WT (nearly 4-fold).
